From article PMC9117880
Several values for one entry are separate records, joined by “and”; a condition that tells them apart may be missing. Equal entries are not always repeated. Where two headings read alike, the source gives them in different places.

Experiments:
Test in all cases: MST
[1] = target: SRS-MTBD (22/19) D3402A mutant (not stated | mouse)
[2] = target: SRS-MTBD (22/19) D3402A mutant (not stated | mouse); remark: listed apart in the source
[3] = target: SRS-MTBD (22/19) D3402A mutant (not stated | mouse); remark: listed apart in the source
[4] = target: SRS-MTBD (22/19) D3402A mutant (not stated | mouse); remark: listed apart in the source

taxol-stabilized, unlabeled microtubules (porcine brain tubulin) (from UniProt P02550 1-451) (complex)
Kd [1]: 5.49 µM
Kd [2]: 13 µM and 14.7 µM
Kd [3]: 0.53 µM
Kd [4]: 0.46 µM
